4 substances from paper PMC4403811, “Efficient Cargo Delivery into Adult Brain Tissue Using Short Cell-Penetrating Peptides” (PLoS ONE, 2015) can be followed below.

Where no end group is shown, it is not given here.

The subject of data set [1] is adult zebrafish brain (telencephalic hemispheres). The data set can be described thus: Relative fluorescence levels in the telencephalic hemispheres after CVMI (surface plots). To be noted: CVMI 100 μM; for relative fluorescence levels in the telencephalic hemispheres (level of peptide translocated to deep tissues): Fast-Red staining of cryosections, compared to control PolyD. Here is the method: (§1) Cerebroventricular microinjections (CVMI) were executed as described in [7, 8]. Fish were anesthetized using MESAB (0.01%) and an incision placed above the optic tectum with a fine needle (Becton Dickinson Biosciences). Through this hole a glass capillary is inserted and the liquid disperses evenly throughout the cerebroventricular fluid upon high pressure injection.
(§2) Fish were sacrificed 1 day post injection and heads fixed over night at 4°C in 2% PFA. Thereafter heads were transferred to 20% Sucrose-EDTA in […] phosphate buffer, pH 7.5. For cryosectioning embedding in Sucrose(20%)-Gelatine (7.5%) on dry ice was done and heads stored at -80°C. 12 μm cryosections were cut using a cryostat microtome and stored at -20°C.
(§3) Stainings were performed as previously described in [36, 43]. Yet after the first washing step a 6 min citrate buffer treatment at 85°C was done. Primary antibodies were sheep anti-fluorescein AP (1:4000, Roche), mouse anti-PCNA (1:500, Dako Cyto) and rabbit anti L-Plastin (Lcp1, 1:7500, a kind gift from Michael Redd, University of Utah, Salt Lake City, UT, USA), they were diluted in PBS. They were incubated at 4°C overnight and secondary antibodies for 30 min at room temperature. Secondary antibodies were Alexa anti-rabbit and anti-mouse 488, 555 (1:500, Molecular probes). FastRed stainings were carried out using Fast Red TR/Naphtol AS-MX tablets (Sigma), according to manufacturer's instructions. Lastly sections were washed using PBSTx and mounted. All immunohistochemical stainings were done on at least five individuals.
(§4) Images were acquired using an inverted Zeiss AxioImager Z1. Only sections between the caudal end of the olfactory bulb and anterior commissure were counted. The quantification of the average translocation range was done using the AxioVision free hand surface area measurement tool. The area showing anti-fluorescein staining in the left hemisphere was measured against the total this telencephalic hemisphere, based on color thresholds against control images. […]

The test system of data set [2] is adult zebrafish brain (telencephalon). The data set can be described thus: L-Plastin immunohistochemistry for immune response (leukocytes/microglia) after peptide CVMI. Particulars: for number of L-Plastin-positive cells per hemisphere per section: dose not printed in the block (heading: high doses), PBS-injected control 35 ±6, n = 3, mean ± s.e.m. The procedure:
as §1, §2, §3
(§5) Images were acquired using an inverted Zeiss AxioImager Z1. Only sections between the caudal end of the olfactory bulb and anterior commissure were counted. The quantification of the average translocation range was done using the AxioVision free hand surface area measurement tool. The area showing anti-fluorescein staining in the left hemisphere was measured against the total this telencephalic hemisphere, based on color thresholds against control images. The statistical evaluation was performed using GraphPad Prism (Version 6.02) for one-way ANOVA followed by a Tukey’s post-hoc test and for Student’s T-Test. Error bars shown are the s.e.m. and asterisks indicate significance according to: *: p0.05, **: p0.01, ***: p0.001. p>0.05 is considered not significant.

Data set [3] has as its system adult zebrafish brain (telencephalic hemisphere). The data set can be described thus: Peptide translocation area in the telencephalon after CVMI (fluorescein IHC). To be noted: 5(6)-carboxyfluorescein-labelled peptide, fluorescein IHC at 1 dpi, n = 3, mean ± s.e.m. Here is the method:
as §1, §2, §3, §5

Data set [4] concerns adult zebrafish brain (telencephalon). To be noted: for number of TUNEL-positive (apoptotic) cells: CVMI 200 μM, 1 dpi, per telencephalic hemisphere per section, n = 3. Here is the method: as §1, §2
TUNEL stainings of sections were carried out using the ApoTag Red In Situ apoptosis Detection Kit (Chemicon International). Stainings were performed according to manufacturer’s instructions and positive and negative controls were included.
as §5

In data set [5] the test system is adult zebrafish brain (ventricular progenitor cells). Particulars: CVMI 200 μM, PCNA IHC, n = 3, mean ± s.e.m. Here is the method: as §1, §2
Stainings were performed as previously described in [36, 43]. Yet after the first washing step a 6 min citrate buffer treatment at 85°C was done. […]
as §4

[6] abbreviates: injection concentration 100 μM, stained area vs total hemisphere.
The mark [7] stands for this setting: CVMI at 100 μM, 150 μM and 200 μM (all doses tested), n = 4.

As to “DDDDDDDDD ({5(6)‑carboxyfluorescein}-DDDDDDDDD) [PolyD, Poly-Aspartic Acid]”, the “relative fluorescence levels in the telencephalic hemispheres (level of peptide translocated to deep tissues)” value in data set [1] is recorded as “no translocation”. Further, in data set [2] (CVMI), the “number of L-Plastin-positive cells per hemisphere per section” value is “do not alter the number of leukocytes/microglia”. For the same substance, in data set [3] (setting [6]), the “average area of peptide translocation in one telencephalic hemisphere” value (shortened to “average area of peptide translocation”) is listed as “did not show any penetration”. For the same substance, the “number of TUNEL-positive (apoptotic) cells” value in data set [4] was “did not result in any increase in the number of apoptotic cells”.

For RKKRRQRRR [Tat], the “average area of peptide translocation” value in data set [3] (setting [6]) is on record as 27 ±13%; in data set [3] (injection concentration 200 μM), 63 ± 11%.

In the case of “RPARPAR ({5(6)‑carboxyfluorescein}-RPARPAR) [CendRP]”, the “average area of peptide translocation” value in data set [3] (setting [6]) is “did not show any penetration”.

On to RRRRRRRRR [PolyR, Poly-Arginine], for which the “relative fluorescence levels in the telencephalic hemispheres (level of peptide translocated to deep tissues)” value in data set [1] is “significantly elevated levels of penetration”. Also, the “effectiveness of penetration relative to Trans (relative fluorescence)” value in data set [1] (PolyR versus Trans) was 3 fold. The “immune response (L-Plastin-positive cells) compared to PolyD control” value in data set [2] (setting [7]) is on record as “did not elicit any immune response”. Besides, the “number of L-Plastin-positive cells per hemisphere per section” value in data set [2] (CVMI) is “do not alter the number of leukocytes/microglia”. In data set [2] (CVMI, doses tested 100, 150, 200 μM, L-Plastin IHC), the “maximum concentration usable without activating the immune system” value is recorded as “not causing an immune reaction at tested concentrations”. The entries for the “average area of peptide translocation” value in data set [3] (setting [6]) and in data set [3] (injection concentration 200 μM) were 70 ± 4% and 70 ± 5%, respectively. In data set [4], the “number of TUNEL-positive (apoptotic) cells” value is listed as “unchanged levels of TUNEL-positive cells”. Further, the “cell death response (TUNEL-positive cells) compared to PolyD control” value in data set [4] (setting [7]) was “did not elicit any cell death response”. The “maximum concentration usable without any cell death response” value in data set [4] (CVMI, doses tested 100, 150, 200 μM, TUNEL) is listed as “not toxic at such concentrations”. In addition, in data set [5], the “ventricularly proliferating progenitor cells (PCNA+ cells per telencephalic hemisphere section)” value is “not altered”.
